{
  "source": "patent US20240261333A1",
  "about": "(published 2024)",
  "assay_in_all_cases": "co-IP with mouse anti-FLAG from lysate of cells overexpressing N-FLAG B3GNT2, then mass spectrometry",
  "key": {"[1]": {"molecular_target": "T1, EIF3I (human, UniProt Q13347 1-325)", "T1 construct": "Identified by mass spectrometry in the co-IP; also called NP_003748.1", "T1 sequence (Q13347 whole entry)": "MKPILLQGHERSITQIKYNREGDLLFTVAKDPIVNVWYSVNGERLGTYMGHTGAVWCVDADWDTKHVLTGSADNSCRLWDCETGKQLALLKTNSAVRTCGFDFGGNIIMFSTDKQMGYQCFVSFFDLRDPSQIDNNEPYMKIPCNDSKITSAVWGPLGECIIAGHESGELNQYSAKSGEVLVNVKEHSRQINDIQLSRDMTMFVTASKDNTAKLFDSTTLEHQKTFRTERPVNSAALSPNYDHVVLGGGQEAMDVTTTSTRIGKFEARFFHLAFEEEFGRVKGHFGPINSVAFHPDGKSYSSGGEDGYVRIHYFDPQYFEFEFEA", "protocol": "(§1) Cells were plated in 10-cm cell culture dishes and grown to 60-80% confluency. For each condition, two biological replicates were harvested for co-IP. Cells were washed with PBS and 4 mL of lysis buffer (20 mM HEPES, 1% Triton X-100, 150 mM NaCl, 1 mM EDTA, and 10% glycerol) containing protease inhibitor cocktail was added. Cells were scraped and lysate was incubated at 4° C. under rotary agitation for 1 h. Lysate was centrifuged at 14,000×g for 10 min at 4° C. Supernatant was transferred to a new tube and an aliquot was taken as the input. […] For Western blots, 10 μg/mL Chicken Anti-FLAG (Aves labs ET-DY100) and IgY control (R&D Systems AB-101-C) antibodies were biotinylated (Thermo Fisher Scientific 90407) and added to the respective conditions. Lysates with antibodies were incubated at 4° C. under rotary agitation overnight. For each mL of lysate, 50 μL of Pierce Protein A/G Magnetic Beads (Mass spectrometry; Thermo Fisher Scientific 88803) or Pierce Streptavidin Magnetic Beads (Western blot; Thermo Fisher Scientific 88817) was washed twice with lysis buffer. Lysates with antibodies were added to the beads and incubated at 4° C. under rotary agitation for 4 h. Beads were washed with lysis buffer 3 times and resuspended in lysis buffer for storage.\n(§2) Magnetic beads were resuspended in 100 mM Tris pH 7.8, reduced, alkylated and digested with trypsin at 37° ° C. overnight. This solution was subjected to solid phase extraction to concentrate the peptides and remove unwanted reagents followed by injection onto a Shimadzu HPLC with fraction collector. Eight fractions were collected and after concentration were injected on a Waters NanoAcquity HPLC equipped with a self-packed Aeris 3 μm C18 analytical column 0.075 mm by 20 cm, (Phenomenex). Peptides were eluted using standard reverse-phase gradients. The effluent from the column was analyzed using a Thermo Orbitrap Elite mass spectrometer (nanospray configuration) operated in a data dependent manner for 54 minutes. The resulting fragmentation spectra were correlated against the known database using Proteome Discover 1.4 (Thermo Fisher Scientific)."}, "[2]": {"molecular_target": "T2, MAGED2 (human, UniProt Q9UNF1 2-606)", "T2 construct": "Identified by mass spectrometry in the co-IP; also called NP_803182.1", "T2 sequence (looked up)": "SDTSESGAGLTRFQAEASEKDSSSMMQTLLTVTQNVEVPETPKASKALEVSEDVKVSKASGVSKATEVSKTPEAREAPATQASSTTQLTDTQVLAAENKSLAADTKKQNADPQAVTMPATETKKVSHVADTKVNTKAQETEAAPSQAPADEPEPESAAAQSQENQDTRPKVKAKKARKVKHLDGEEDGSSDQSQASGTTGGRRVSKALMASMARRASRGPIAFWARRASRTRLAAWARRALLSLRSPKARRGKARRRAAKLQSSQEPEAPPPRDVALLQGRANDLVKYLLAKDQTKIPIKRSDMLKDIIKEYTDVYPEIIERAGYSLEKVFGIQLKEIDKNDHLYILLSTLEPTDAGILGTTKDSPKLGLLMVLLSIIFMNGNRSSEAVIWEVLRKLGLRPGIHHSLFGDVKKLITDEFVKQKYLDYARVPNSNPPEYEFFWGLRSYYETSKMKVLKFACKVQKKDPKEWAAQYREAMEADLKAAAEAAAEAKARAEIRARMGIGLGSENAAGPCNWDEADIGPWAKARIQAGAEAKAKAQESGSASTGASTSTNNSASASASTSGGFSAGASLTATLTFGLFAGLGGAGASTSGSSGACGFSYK", "protocol": "as §1, §2"}, "[3]": {"molecular_target": "T3, CPSF6 (human, UniProt Q16630-2 1-588, limits assumed)", "T3 construct": "Identified by mass spectrometry in the co-IP; also called NP_001287876.1 (+3)", "T3 sequence (looked up)": "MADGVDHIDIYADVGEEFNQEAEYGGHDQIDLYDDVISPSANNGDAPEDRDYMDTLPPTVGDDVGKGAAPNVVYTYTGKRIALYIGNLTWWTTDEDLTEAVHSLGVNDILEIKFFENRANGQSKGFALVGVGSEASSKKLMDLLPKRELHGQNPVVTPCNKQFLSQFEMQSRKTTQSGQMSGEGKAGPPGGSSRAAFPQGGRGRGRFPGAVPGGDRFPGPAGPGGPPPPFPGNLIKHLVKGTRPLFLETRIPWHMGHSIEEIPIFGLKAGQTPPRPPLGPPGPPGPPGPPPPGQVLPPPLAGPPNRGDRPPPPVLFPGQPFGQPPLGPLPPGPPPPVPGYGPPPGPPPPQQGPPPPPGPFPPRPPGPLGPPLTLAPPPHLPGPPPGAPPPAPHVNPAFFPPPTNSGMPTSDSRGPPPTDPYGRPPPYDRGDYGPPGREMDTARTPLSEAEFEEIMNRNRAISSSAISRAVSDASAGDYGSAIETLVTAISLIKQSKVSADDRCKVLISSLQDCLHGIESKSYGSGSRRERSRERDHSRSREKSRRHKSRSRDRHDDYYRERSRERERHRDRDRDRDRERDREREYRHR", "protocol": "as §1, §2"}, "[4]": {"molecular_target": "T4, SRP14 (human, UniProt P37108 2-136)", "T4 construct": "Identified by mass spectrometry in the co-IP; also called NP_003125.3", "T4 sequence (looked up)": "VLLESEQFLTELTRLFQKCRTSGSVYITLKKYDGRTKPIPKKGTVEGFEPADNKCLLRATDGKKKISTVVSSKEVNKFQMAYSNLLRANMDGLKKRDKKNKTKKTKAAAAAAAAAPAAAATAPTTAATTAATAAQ", "protocol": "as §1, §2"}, "[5]": {"molecular_target": "T5, ANXA2 (human, UniProt P07355-2 1-357, limits assumed)", "T5 construct": "Identified by mass spectrometry in the co-IP; also called NP_001002858.1 (+1)", "T5 sequence (P07355 other isoform, or with tags, fused parts or gaps limits assumed)": "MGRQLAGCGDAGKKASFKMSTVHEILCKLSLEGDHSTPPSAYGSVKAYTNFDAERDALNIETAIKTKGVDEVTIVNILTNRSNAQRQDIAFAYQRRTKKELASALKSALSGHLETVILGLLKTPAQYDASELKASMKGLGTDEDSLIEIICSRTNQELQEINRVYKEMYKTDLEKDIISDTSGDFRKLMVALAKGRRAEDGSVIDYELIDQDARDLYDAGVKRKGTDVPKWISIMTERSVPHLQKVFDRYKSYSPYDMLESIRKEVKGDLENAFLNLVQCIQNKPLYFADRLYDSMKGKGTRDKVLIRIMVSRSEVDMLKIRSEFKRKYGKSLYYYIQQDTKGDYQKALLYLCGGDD", "protocol": "as §1, §2"}, "[6]": {"molecular_target": "T6, TFAM (human, UniProt Q00059 43-246)", "T6 construct": "Identified by mass spectrometry in the co-IP; also called NP_003192.1", "T6 sequence (looked up)": "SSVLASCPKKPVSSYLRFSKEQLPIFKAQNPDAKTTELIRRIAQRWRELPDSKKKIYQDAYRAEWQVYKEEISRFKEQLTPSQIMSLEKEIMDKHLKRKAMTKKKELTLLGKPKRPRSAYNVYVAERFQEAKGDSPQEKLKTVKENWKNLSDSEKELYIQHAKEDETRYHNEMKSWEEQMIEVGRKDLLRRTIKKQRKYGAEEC", "protocol": "as §1, §2"}},
  "data": [
    {"binder": "N-terminal FLAG tagged B3GNT2 (enzyme, human, UniProt Q9NY97 1-397, looked up, FLAG-tagged ORF overexpressed in A375 cells; bait of the co-IP with mouse anti-FLAG; also called N-FLAG B3GNT2; N-term FLAG; not shown: N-terminal FLAG tag) MSVGRRRIKLLGILMMANVFIYFIMEVSKSSSQEKNGKGEVIIPKEKFWKISTPPEAYWNREQEKLNRQYNPILSMLTNQTGEAGRLSNISHLNYCEPDLRVTSVVTGFNNLPDRFKDFLLYLRCRNYSLLIDQPDKCAKKPFLLLAIKSLTPHFARRQAIRESWGQESNAGNQTVVRVFLLGQTPPEDNHPDLSDMLKFESEKHQDILMWNYRDTFFNLSLKEVLFLRWVSTSCPDTEFVFKGDDDVFVNTHHILNYLNSLSKTKAKDLFIGDVIHNAGPHRDKKLKYYIPEVVYSGLYPPYAGGGGFLYSGHLALRLYHITDQVHLYPIDDVYTGMCLQKLGLVPEKHKGFRTFDIEEKNKNNICSYVDLMLVHSRKPQEMIDIWSQLQSAHLKC", "values": [
      {"measurement": "co-IP mass spectrometry count (N-term FLAG)", "setting": "[1]", "result": 0},
      {"measurement": "co-IP mass spectrometry count (N-term FLAG)", "setting": "[2]", "result": 0},
      {"measurement": "co-IP mass spectrometry count (N-term FLAG)", "setting": "[3]", "result": 30},
      {"measurement": "co-IP mass spectrometry count (N-term FLAG)", "setting": "[4]", "result": 0},
      {"measurement": "co-IP mass spectrometry count (N-term FLAG)", "setting": "[5]", "result": 17},
      {"measurement": "co-IP mass spectrometry count (N-term FLAG)", "setting": "[6]", "result": 0}
    ]}
  ]
}
